System: small intestinal immune cells
Assay: Droplet-based scRNA-seq of small intestinal immune cells (LP and PP), OVA vs PBS, clustering and differential expression
Type: in vivo, mouse
Text: To comprehensively characterize small intestinal immune cells, Applicants generated scRNA-Seq profiles for 58,067 immune cells collected from lamina propria (LP) and Peyer's patch (PP) regions at steady state and after induction of a type 2 inflammatory reaction to ovalbumin (OVA) (Brandt et al., 2003) (FIGS. 1A and 8A). To ensure sufficient representation of rare cells, Applicants combined a normalization strategy—removing by flow sorting either a portion of IgD+ naïve B cells, which are the most abundant cell type in PPs, or all CD19+ and CD3+ T cells (FIG. 8B, Methods)—with profiling of a sufficiently large number of cells number (P>0.99 to recover at least 15 cells from each cluster, Methods) by massively parallel scRNA-seq (Haber et al., 2017) (Methods). Applicants obtained 36,797 and 21,270 high quality cells passing initial filtering (Methods) from PP and LP regions, respectively.
Overall, Applicants annotated 27 cell subsets across the two compartments, spanning T cells, B cells, ILCs, dendritic cells (DCs), myeloid cells and stromal cells, in frequencies ranging from 0.07% to 14%. Briefly, Applicants first partitioned the cells from the PP regions by unsupervised clustering (Methods) into 46 clusters, retained the 97% of cells that were robustly assigned cell identities in each cluster (Methods), assigned the cells from the LP regions to the 46 clusters using a classifier (Methods), and visualized the data with scvis (Ding et al., 2018), a deep generative model-based method (FIGS. 1B and 8C, Methods). Next, Applicants identified genes that were differentially expressed between the cells in each cluster and the remaining cells (Table 1, Methods), as well as between pairs of clusters (Table 2), to elucidate identities of similar cell types/states. Applicants excluded from downstream analysis clusters mostly consisting of contaminants from epithelium, likely doublets, or cells with a small number of Unique Molecular Identifiers (UMIs) (FIGS. 1C and 8D), or lacking distinct markers (Methods). Altogether, Applicants retained 27 clusters spanning 85% of the cells and each associated with distinct marker genes (FIG. 8E, Methods).
To induce allergic reaction to OVA, 6 to 7 weeks old mice were sensitized twice, two weeks apart, with 50 μg of OVA plus 1 mg of aluminum potassium sulfate adjuvant via intraperitoneal injection. Two weeks later, mice were orally administered with 50 mg of OVA on every other day for a total of five times. 1 μg of α-CGRP peptide was administered simultaneously when indicated. Mice were deprived of food for 3-4 hours in cages with wood chip bedding for limiting antigen degradation in the stomach before each intragastric challenge.
Isolation of cells from Peyer's patches (PPs). Peyer's patches (PPs) were carefully dissected from the small intestine under a stereo microscope using a fine scissor, pierced once with a fine forcep. Tissues were digested in freshly made digestion buffer (RPMI-1640 containing 100 μg/ml Liberase™ and 50 μg/ml DNase I at 37° C. on a roto-mixer. After 15 min, tissues were very gently mixed using a 1 ml pipette. The supernatant was collected and added to ice-cold MACS buffer (pH 7.4; PBS plus 2% FCS and 2 mM EDTA). Pre-warmed (37° C.) fresh digestion buffer was added to the remaining tissues. After rotation at 37° C. for 15 min, the mixture was vigorously mixed using a 1 ml pipette for 1 min. Supernatants from the two steps were combined and passed through 70 μm filters and stained for FACS (below).
Isolation of cells from the lamina propria (LP). The small intestines were opened longitudinally and washed in ice-cold PBS. For scRNA-seq, roughly 0.5 cm of fragments from each of the distal, middle and proximal regions without visible PPs were collected. Epithelial cells were dissociated by tissue rotation in pre-warmed (37° C.) PBS containing 10 mM EDTA at 37° C. for 15 min, followed by additional incubation on ice for 15 min. Tissues were then shaken vigorously. […]

B1: OVA (protein, UniProt P01012 2-386, looked up)
Ovalbumin: GSIGAASMEFCFDVFKELKVHHANENIFYCPIAIMSALAMVYLGAKDSTRTQINKVVRFDKLPGFGDSIEAQCGTSVNVHSSLRDILNQITKPNDVYSFSLASRLYAEERYPILPEYLQCVKELYRGGLEPINFQTAADQARELINSWVESQTNGIIRNVLQPSSVDSQTAMVLVNAIVFKGLWEKAFKDEDTQAMPFRVTEQESKPVQMMYQIGLFRVASMASEKMKILELPFASGTMSMLVLLPDEVSGLEQLESIINFEKLTEWTSSNVMEERKIKVYLPRMKMEEKYNLTSVLMAMGITDVFSSSANLSGISSAESLKISQAVHAAHAEINEAGREVVGSAEAGVDAASVSEEFRADHPFLFCIKHIATNAVLFFGRCVSP
PP, cluster ID 9, OVA vs PBS
  Tsc22d3 LN (average fold change): 1.031
  Tubb5 LN (average fold change): −0.244
  Uba52 LN (average fold change): 0.365
  Ubb LN (average fold change): −0.190
  Wdr89 LN (average fold change): 0.469
  Zfp36l2 LN (average fold change): 1.590
PP, cluster ID 10
  1110059E24Rik percentage of expressing cells in OVA-treated group: 0.507
  Apobec1 percentage of expressing cells in OVA-treated group: 0.807
  Basp1 percentage of expressing cells in OVA-treated group: 0.755
  Btg1 percentage of expressing cells in OVA-treated group: 0.985
  Cd47 percentage of expressing cells in OVA-treated group: 0.602
  Crlf3 percentage of expressing cells in OVA-treated group: 0.658
  Ddit4 percentage of expressing cells in OVA-treated group: 0.296
  Dusp1 percentage of expressing cells in OVA-treated group: 0.451
  Egln2 percentage of expressing cells in OVA-treated group: 0.558
  Hspa8 percentage of expressing cells in OVA-treated group: 0.975
  Igha percentage of expressing cells in OVA-treated group: 0.405
  Napsa percentage of expressing cells in OVA-treated group: 0.776
  Ppp1r21 percentage of expressing cells in OVA-treated group: 0.165
  Rsrp1 percentage of expressing cells in OVA-treated group: 0.722
  Sesn1 percentage of expressing cells in OVA-treated group: 0.402
  Sh3glb2 percentage of expressing cells in OVA-treated group: 0.187
  Tsc22d3 percentage of expressing cells in OVA-treated group: 0.689
  Ttc7 percentage of expressing cells in OVA-treated group: 0.244
  Uba52 percentage of expressing cells in OVA-treated group: 0.985
  Zfp36l2 percentage of expressing cells in OVA-treated group: 0.68
PP, cluster ID 10, OVA vs PBS
  1110059E24Rik LN (average fold change): 0.715
  Apobec1 LN (average fold change): 0.309
  Basp1 LN (average fold change): −0.516
  Btg1 LN (average fold change): 0.438
  Cd47 LN (average fold change): 0.638
  Crlf3 LN (average fold change): 0.396
  Ddit4 LN (average fold change): 0.864
  Dusp1 LN (average fold change): 0.614
  Egln2 LN (average fold change): 0.624
  Hspa8 LN (average fold change): −0.286
  Igha LN (average fold change): 0.162
  Napsa LN (average fold change): 0.374
  Ppp1r21 LN (average fold change): 1.045
  Rsrp1 LN (average fold change): −0.187
  Sesn1 LN (average fold change): 1.071
  Sh3glb2 LN (average fold change): 0.383
  Tsc22d3 LN (average fold change): 1.088
  Ttc7 LN (average fold change): 1.338
  Uba52 LN (average fold change): 0.287
  Zfp36l2 LN (average fold change): 1.856
PP, cluster ID 11
  Jund percentage of expressing cells in OVA-treated group: 0.855
PP, cluster ID 11, OVA vs PBS
  Jund LN (average fold change): −0.624
Cluster ID 4, PP
  1600014C10Rik: percentage of expressing cells in OVA-treated group: 0.185
  2010300C02Rik: percentage of expressing cells in OVA-treated group: 0.518
  2310001H17Rik: percentage of expressing cells in OVA-treated group: 0.214
  4921524J17Rik: percentage of expressing cells in OVA-treated group: 0.161
  Alyref: percentage of expressing cells in OVA-treated group: 0.141
  Amd1: percentage of expressing cells in OVA-treated group: 0.192
  Asb2: percentage of expressing cells in OVA-treated group: 0.548
  Azin1: percentage of expressing cells in OVA-treated group: 0.135
  Bin3: percentage of expressing cells in OVA-treated group: 0.235
  Bzw1: percentage of expressing cells in OVA-treated group: 0.321
  Cacybp: percentage of expressing cells in OVA-treated group: 0.293
  Cd69: percentage of expressing cells in OVA-treated group: 0.737
  Cdkn1a: percentage of expressing cells in OVA-treated group: 0.256
  Clec2d: percentage of expressing cells in OVA-treated group: 0.261
  Cwc25: percentage of expressing cells in OVA-treated group: 0.12
  D16Ertd472e: percentage of expressing cells in OVA-treated group: 0.175
  Dnaja1: percentage of expressing cells in OVA-treated group: 0.705
  Dnajb9: percentage of expressing cells in OVA-treated group: 0.18
  Egln3: percentage of expressing cells in OVA-treated group: 0.172
  Fam46a: percentage of expressing cells in OVA-treated group: 0.099
  Fibp: percentage of expressing cells in OVA-treated group: 0.178
  Furin: percentage of expressing cells in OVA-treated group: 0.382
  Gatad1: percentage of expressing cells in OVA-treated group: 0.155
  Gcnt2: percentage of expressing cells in OVA-treated group: 0.144
  Gimap3: percentage of expressing cells in OVA-treated group: 0.536
  Git2: percentage of expressing cells in OVA-treated group: 0.3
  Gnb1: percentage of expressing cells in OVA-treated group: 0.419

From patent US20220143148A1, “COMPOSITIONS AND METHODS FOR MODULATING CGRP SIGNALING TO REGULATE INTESTINAL INNATE LYMPHOID CELLS” (The Broad Institute, Inc., priority 2019, published 2022)
